Key:
[1] = target: C7-VP64 three-finger activator (artificial) (UniProt P08046); experiment: cell_activity; details: tobacco protoplasts, Reporter II pc7rbTATA; Reporter I 10 fold
[2] = tested on: SID-2C7 six-finger repressor (artificial); experiment: cell_activity; details: tobacco protoplasts; almost 2 fold in maize
[3] = tested on: 2C7 six-finger zinc finger protein (artificial); details: CITED earlier work; cited from earlier work
[4] = tested on: e2c six-finger zinc finger protein (artificial); details: CITED Beerli et al. 1998; cited from earlier work

Substance: GCGTGGGCGGCGTGGGCG (double strand) [2C7 binding site (six tandem repeats in reporters)]
- activity (fold activation) [1]: 100
- activity (fold repression) [2]: 5
- Kd [3]: 460 pM

Substance: e2c target site
- Kd [4]: 500 pM

Source: patent US20030037355
